Where two headings read alike, the source gives them in different places.
B1: ActRIIB(20-132)-hFc (Fc fusion, not shown: a dimerising Fc or GST)
chain: GRGEAETRECIYYNANWELERTNQSGLERCEGEQDKRLHCYASWRNSSGTIELVKKGCWLDDFNCYDRQECVATEENPQVYFCCCEGNFCNERFTHLPEAGGPEVTYEPPPTA
B2: ActRIIB(20-128)-hFc (Fc fusion, not shown: a dimerising Fc or GST)
chain: GRGEAETRECIYYNANWELERTNQSGLERCEGEQDKRLHCYASWRNSSGTIELVKKGCWLDDFNCYDRQECVATEENPQVYFCCCEGNFCNERFTHLPEAGGPEVTYEP
B3: ActRIIB(23-131)-hFc (Fc fusion, not shown: a dimerising Fc or GST)
chain: EAETRECIYYNANWELERTNQSGLERCEGEQDKRLHCYASWRNSSGTIELVKKGCWLDDFNCYDRQECVATEENPQVYFCCCEGNFCNERFTHLPEAGGPEVTYEPPPT
B4: ActRIIB-Fc A64 20-134 (Fc fusion, not shown: a dimerising Fc or GST)
chain: GRGEAETRECIYYNANWELERTNQSGLERCEGEQDKRLHCYASWANSSGTIELVKKGCWLDDFNCYDRQECVATEENPQVYFCCCEGNFCNERFTHLPEAGGPEVTYEPPPTAPT
B5: ActRIIB(22-131)-hFc (Fc fusion, not shown: a dimerising Fc or GST)
chain: GEAETRECIYYNANWELERTNQSGLERCEGEQDKRLHCYASWRNSSGTIELVKKGCWLDDFNCYDRQECVATEENPQVYFCCCEGNFCNERFTHLPEAGGPEVTYEPPPT
B6: ActRIIB(24-131)-hFc (Fc fusion, not shown: a dimerising Fc or GST)
chain: AETRECIYYNANWELERTNQSGLERCEGEQDKRLHCYASWRNSSGTIELVKKGCWLDDFNCYDRQECVATEENPQVYFCCCEGNFCNERFTHLPEAGGPEVTYEPPPT
B7: ActRIIB(20-131)-hFc (Fc fusion, not shown: a dimerising Fc or GST)
chain: GRGEAETRECIYYNANWELERTNQSGLERCEGEQDKRLHCYASWRNSSGTIELVKKGCWLDDFNCYDRQECVATEENPQVYFCCCEGNFCNERFTHLPEAGGPEVTYEPPPT
B8: ActRIIB(21-131)-hFc (Fc fusion, not shown: a dimerising Fc or GST)
chain: RGEAETRECIYYNANWELERTNQSGLERCEGEQDKRLHCYASWRNSSGTIELVKKGCWLDDFNCYDRQECVATEENPQVYFCCCEGNFCNERFTHLPEAGGPEVTYEPPPT

Key:
Assay in all cases: cell-based or functional assay
Activin A [1] = biological target: T1, Activin A (UniProt P08476)
T1 sequence (looked up): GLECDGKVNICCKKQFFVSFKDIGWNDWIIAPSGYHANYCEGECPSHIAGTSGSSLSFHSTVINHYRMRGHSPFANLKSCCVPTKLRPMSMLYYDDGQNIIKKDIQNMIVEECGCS

[2] = biological target: T2, Growth and Differentiation Factor-11 (GDF11) (UniProt O95390)
T2 sequence (looked up): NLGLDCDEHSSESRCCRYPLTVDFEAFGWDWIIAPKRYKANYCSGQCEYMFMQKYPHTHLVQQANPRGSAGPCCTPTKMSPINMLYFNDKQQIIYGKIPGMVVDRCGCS

Activin A [3] = biological target: T1, Activin A; remark: listed apart in the source
[4] = biological target: T2, Growth and Differentiation Factor-11 (GDF11); remark: listed apart in the source

Binder | IC50 (Activin A [1]) | IC50 [2] | IC50 (Activin A [3]) | IC50 [4] | Activin Inhibition Activity (KI) (Activin A [1]) | GDF11 Inhibition Activity (KI) [2]
B1 | 0.032 µg/mL | 0.087 µg/mL | – | – | – | –
B2 | 0.158 µg/mL | 0.13 µg/mL | – | – | – | –
B3 | – | – | 0.043 µg/mL | 0.06 µg/mL | – | –
B4 | – | – | – | – | 1000 nM | 1000 nM
B5 | – | – | 0.1 µg/mL | 0.071 µg/mL | – | –
B6 | – | – | 0.105 µg/mL | 0.069 µg/mL | – | –
B7 | 0.044 µg/mL | 0.12 µg/mL | 0.201 µg/mL | 0.183 µg/mL | – | –
B8 | – | – | 0.325 µg/mL | 0.121 µg/mL | – | –

Reference: patent publication US20180037622A1
